The results in this text go back to patent publication EP4772624A1.

The test concerns the target human IgG1 antibody against KLH (keyhole limpet hemocyanin). Briefly: cell-based or functional assay.

Take “wild-type IdeZ-mouse Fc fusion protein (from UniProt P01868 103-324)”: the cleavage of human IgG1 antibody (SDS-PAGE, reducing; 37 C, 2 h): highest concentration ratio of antibody to fusion protein at which cleavage was confirmed (times (antibody to fusion protein)) was found to be 33.
